For 14 molecules, Ki results are on record in US20230265151A1, “GIP/GLP1 CO-AGONIST COMPOUNDS” (priority 2020, published 2023).

One assay deals with T1, human glucagon receptor (human, UniProt P47871 26-477).
T1 construct: whole, on cells; also called hGCGR; hGcgR
Briefly: SPA competition vs [125I]-Gcg, hGcgR membranes. As to the method: The binding buffer contains 25 mM 4-(2-hydroxyethyl)-1-piperazineethanesulfonic acid (HEPES), pH 7.4, 2.5 mM CaCl₂, 1 mM MgCh, 0.1% (w/v) bacitracin (Research Products), 0.003% (w/v) Polyoxyethylenesorbitan monolaurate (TWEEN®-20), and Roche Complete™ Protease Inhibitors without EDTA. […] Plates are sealed and mixed on a plate shaker (setting 6) for 1 minute and read with a PerkinElmer Trilux MicroBeta® scintillation counter after 12 hours of incubation/settling time at room temperature.
Data are analyzed using four-parameter (curve maximum, curve minimum, IC₅₀, Hill slope) nonlinear regression routines (Genedata Screener, version 12.0.4, Genedata AG, Basal, Switzerland). […] Values for Kᵢ are reported as the geometric mean, with error expressed as the standard error of the mean (SEM) and n is equal to the number of independent replicates (determined in assays performed on different days).

Another assay deals with T2, human GIP receptor (human, UniProt P48546 22-466).
T2 construct: whole, on cells; also called hGIPR; human glucose-dependent insulinotropic polypeptide receptor
T2 sequence (looked up): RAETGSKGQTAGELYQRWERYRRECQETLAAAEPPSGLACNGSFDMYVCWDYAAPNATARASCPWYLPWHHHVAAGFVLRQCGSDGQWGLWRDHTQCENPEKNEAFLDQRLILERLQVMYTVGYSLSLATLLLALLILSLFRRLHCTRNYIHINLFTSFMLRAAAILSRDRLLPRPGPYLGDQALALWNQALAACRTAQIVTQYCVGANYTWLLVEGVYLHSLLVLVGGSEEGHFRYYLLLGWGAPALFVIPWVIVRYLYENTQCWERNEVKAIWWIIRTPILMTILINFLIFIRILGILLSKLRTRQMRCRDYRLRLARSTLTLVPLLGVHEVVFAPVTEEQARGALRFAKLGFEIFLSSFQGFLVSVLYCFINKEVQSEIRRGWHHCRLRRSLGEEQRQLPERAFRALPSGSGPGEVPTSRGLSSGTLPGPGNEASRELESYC
Briefly: SPA competition vs [125I]-GIP, hGIPR membranes.

In another assay the target is T3, human GLP-1 receptor (human, UniProt P43220 24-463).
T3 construct: whole, on cells; also called hGLP-1R; human glucagon-like peptide-1 receptor
Kind of assay: SPA competition vs [125I]-GLP-1, hGLP-1R membranes. The procedure, abridged: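 Competition binding in 25 mM HEPES pH 7.4, 2.5 mM CaCl₂, 1 mM MgCl₂, 0.1% bacitracin, 0.003% TWEEN-20, EDTA-free protease inhibitors. IC₅₀ from four-parameter nonlinear fit; Kᵢ given as geometric mean ± SEM, n = independent replicates on different days.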

T1 sequence (P47871 26-477): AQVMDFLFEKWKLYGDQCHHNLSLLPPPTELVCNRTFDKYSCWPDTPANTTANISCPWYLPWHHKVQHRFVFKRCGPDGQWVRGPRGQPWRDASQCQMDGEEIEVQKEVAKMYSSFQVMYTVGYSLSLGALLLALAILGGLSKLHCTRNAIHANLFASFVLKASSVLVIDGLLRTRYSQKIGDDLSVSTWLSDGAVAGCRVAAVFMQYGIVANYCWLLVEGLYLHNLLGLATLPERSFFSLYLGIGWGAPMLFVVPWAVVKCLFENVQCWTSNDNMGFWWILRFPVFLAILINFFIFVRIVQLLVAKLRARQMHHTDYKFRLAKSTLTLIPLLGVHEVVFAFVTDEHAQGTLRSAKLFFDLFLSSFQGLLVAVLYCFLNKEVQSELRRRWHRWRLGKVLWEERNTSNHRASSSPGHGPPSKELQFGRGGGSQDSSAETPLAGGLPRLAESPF

B1: Y-Aib-EGT-αMeF(2F)-TSD-4Pal-SI-αMeL-LD-Orn-K((2-[2-(2-Amino-ethoxy)-ethoxy]-acetyl)3-(γ-Glu)-CO-(CH2)14-CH3)AQ-Aib-EFI-(D-Glu)-αMeY-LIEGGK((2-[2-(2-Amino-ethoxy … (peptide)
peptide: YXEGTXTSDXSIXLDXKAQXEFIXXLIEGGKSSGAPPPS
modifications: Aib2, αMeF(2F)6, 4Pal10, αMeL13, Orn16, K17(Z1), Aib20, D-Glu24, αMeY25, K31(Z1), C-term NH2; Z1=AEEA3-(γ-Glu)-CO-(CH2)14-CH3
Take B1: the Ki in the assay with human glucagon receptor stood at 0.62 nM; in the assay with human GIP receptor, 0.0308 nM.

B2: Y-Aib-EGT-αMeF(2F)-TSDY-aMeS-I-αMeL-LD-Orn-K((2-[2-(2-Amino-ethoxy)-ethoxy]-acetyl)2-(γ-Glu)-CO-(CH2)12-CO2H)AQ-Aib-EFI-(D-Glu)-αMeY-LIEGGK((2-[2-(2-Amino-ethox … (peptide)
peptide: YXEGTXTSDYXIXLDXKAQXEFIXXLIEGGKSSGAPPPS
modifications: Aib2, αMeF(2F)6, αMeS11, αMeL13, Orn16, K17(Z1), Aib20, D-Glu24, αMeY25, K31(Z1), C-term NH2; Z1=AEEA2-(γ-Glu)-CO-(CH2)12-CO2H
Take B2: the Ki in the assay with human GLP-1 receptor came out at 1.21 nM; with human glucagon receptor it was 196 nM; with human GIP receptor it was 0.0573 nM.

B3: Y-Aib-EGT-αMeF-TSD-4Pal-SI-αMeL-LD-Orn-K((2-[2-(2-Amino-ethoxy)-ethoxy]-acetyl)2-(γ-Glu)-CO-(CH2)12-CO2H)AQ-Aib-E-αMeF-I-(D-Glu)-αMeY-LIEGGK((2-[2-(2-Amino-etho … (peptide)
peptide: YXEGTXTSDXSIXLDXKAQXEXIXXLIEGGKSSGAPPPS
modifications: Aib2, αMeF6, 4Pal10, αMeL13, Orn16, K17(Z1), Aib20, αMeF22, D-Glu24, αMeY25, K31(Z1), C-term NH2; Z1=AEEA2-(γ-Glu)-CO-(CH2)12-CO2H
B3: the Ki with human GLP-1 receptor was determined as 29 nM; with human glucagon receptor, 217 nM; in the assay with human GIP receptor, 0.0761 nM.

B4: Y-Aib-EGT-αMeF(2F)-TSD-4Pal-SI-αMeL-LD-Orn-K((εK)-(2-[2-(2-Amino-ethoxy)-ethoxy]-acetyl)-(γ-Glu)-CO-(CH2)12-CO2H)AQ-Aib-EFI-(D-Glu)-αMeY-LIEGGK((εK)-(2-[2-(2-Am … (peptide)
peptide: YXEGTXTSDXSIXLDXKAQXEFIXXLIEGGKSSGAPPPS
modifications: Aib2, αMeF(2F)6, 4Pal10, αMeL13, Orn16, K17(Z1), Aib20, D-Glu24, αMeY25, K31(Z1), C-term NH2; Z1=(εK)-AEEA-(γ-Glu)-CO-(CH2)12-CO2H
Consider B4, for which the values for the Ki in the assay with human GLP-1 receptor, with human glucagon receptor and in the assay with human GIP receptor were 1.47 nM, 611 nM and 0.103 nM, respectively.

B5: Y-Aib-EGT-αMeF(2F)-TSD-2Nal-SI-αMeL-LD-Orn-K((2-[2-(2-Amino-ethoxy)-ethoxy]-acetyl)2-(γ-Glu)-CO-(CH2)12-CO2H)AQ-Aib-EFI-(D-Glu)-αMeY-LIEGGK((2-[2-(2-Amino-ethox … (peptide)
peptide: YXEGTXTSDXSIXLDXKAQXEFIXXLIEGGKSSGAPPPS
modifications: Aib2, αMeF(2F)6, 2Nal10, αMeL13, Orn16, K17(Z1), Aib20, D-Glu24, αMeY25, K31(Z1), C-term NH2; Z1=AEEA2-(γ-Glu)-CO-(CH2)12-CO2H
On to B5, for which the Ki with human GLP-1 receptor amounted to 4.35 nM; in the assay with human glucagon receptor, 114 nM; with human GIP receptor it was 0.297 nM.

B6: Y-Aib-EGT-αMeF(2F)-TSD-1Nal-SI-αMeL-LD-Orn-K((2-[2-(2-Amino-ethoxy)-ethoxy]-acetyl)2-(γ-Glu)-CO-(CH2)12-CO2H)AQ-Aib-EFI-(D-Glu)-αMeY-LIEGGK((2-[2-(2-Amino-ethox … (peptide)
peptide: YXEGTXTSDXSIXLDXKAQXEFIXXLIEGGKSSGAPPPS
modifications: Aib2, αMeF(2F)6, 1Nal10, αMeL13, Orn16, K17(Z1), Aib20, D-Glu24, αMeY25, K31(Z1), C-term NH2; Z1=AEEA2-(γ-Glu)-CO-(CH2)12-CO2H
As for B6, the Ki amounted to 2.85 nM with human GLP-1 receptor, 137 nM with human glucagon receptor and 0.152 nM in the assay with human GIP receptor.

B7: Y-Aib-EGT-αMeF(2F)-TSD-4Pal-SI-αMeL-LD-Orn-K((2-[2-(2-Amino-ethoxy)-ethoxy]-acetyl)2-(εK)-CO-(CH2)12-CO2H)AQ-Aib-EFI-(D-Glu)-αMeY-LIEGGK((2-[2-(2-Amino-ethoxy)- … (peptide)
peptide: YXEGTXTSDXSIXLDXKAQXEFIXXLIEGGKSSGAPPPS
modifications: Aib2, αMeF(2F)6, 4Pal10, αMeL13, Orn16, K17(Z1), Aib20, D-Glu24, αMeY25, K31(Z1), C-term NH2; Z1=AEEA2-(εK)-CO-(CH2)12-CO2H
As to B7, the Ki with human GLP-1 receptor was found to be 1.34 nM; with human glucagon receptor, 264 nM; in the assay with human GIP receptor, 0.117 nM.

B8: Y-Aib-EGT-αMeF(2F)-TSD-4Pal-SI-αMeL-LD-Orn-K((εK)-(γ-Glu)-CO-(CH2)12-CO2H)AQ-Aib-EFI-(D-Glu)-αMeY-LIEGGK((εK)-(γ-Glu)-CO-(CH2)12-CO2H)SSGAPPPS-NH2 (peptide)
peptide: YXEGTXTSDXSIXLDXKAQXEFIXXLIEGGKSSGAPPPS
modifications: Aib2, αMeF(2F)6, 4Pal10, αMeL13, Orn16, K17(Z1), Aib20, D-Glu24, αMeY25, K31(Z1), C-term NH2; Z1=(εK)-(γ-Glu)-CO-(CH2)12-CO2H
Turning to B8, the results for the inhibitory constant (Ki) in the assay with human GLP-1 receptor, with human glucagon receptor and in the assay with human GIP receptor were 0.803 nM, 174 nM and 0.0608 nM, respectively.

B9: Y-Aib-EGT-αMeF(2F)-TSD-αMeL-SI-aMeL-LD-Orn-K((2-[2-(2-Amino-ethoxy)-ethoxy]-acetyl)2-(γ-Glu)-CO-(CH2)12-CO2H)AQ-Aib-EFI-(D-Glu)-αMeY-LIEGGK((2-[2-(2-Amino-ethox … (peptide)
peptide: YXEGTXTSDXSIXLDXKAQXEFIXXLIEGGKSSGAPPPS
modifications: Aib2, αMeF(2F)6, αMeL10, αMeL13, Orn16, K17(Z1), Aib20, D-Glu24, αMeY25, K31(Z1), C-term NH2; Z1=AEEA2-(γ-Glu)-CO-(CH2)12-CO2H
Consider B9, for which the Ki was 1.64 nM with human GLP-1 receptor, 51.7 nM with human glucagon receptor and 0.0741 nM with human GIP receptor.

B10: Y-Aib-EGT-αMeF(2F)-TSD-4Pal-SI-αMeL-LD-Orn-K((εK)-(γ-Glu)-(γ-Glu)-CO-(CH2)12-CO2H)AQ-Aib-EFI-(D-Glu)-αMeY-LIEGGK((εK)-(γ-Glu)-(γ-Glu)-CO-(CH2)12-CO2H)SSGAPPPS-N … (peptide)
peptide: YXEGTXTSDXSIXLDXKAQXEFIXXLIEGGKSSGAPPPS
modifications: Aib2, αMeF(2F)6, 4Pal10, αMeL13, Orn16, K17(Z1), Aib20, D-Glu24, αMeY25, K31(Z1), C-term NH2; Z1=(εK)-(γ-Glu)-(γ-Glu)-CO-(CH2)12-CO2H
As for B10, the Ki with human GLP-1 receptor was determined as 1.69 nM; with human glucagon receptor it was 412 nM; with human GIP receptor, 0.234 nM.

B11: Y-Aib-EGT-αMeF(2F)-TSD-4Pal-SI-αMeL-LD-Orn-K((2-[2-(2-Amino-ethoxy)-ethoxy]-acetyl)2-CO-(CH2)12-CO2H)AQ-Aib-EFI-(D-Glu)-αMeY-LIEGGK((2-[2-(2-Amino-ethoxy)-ethox … (peptide)
peptide: YXEGTXTSDXSIXLDXKAQXEFIXXLIEGGKSSGAPPPS
modifications: Aib2, αMeF(2F)6, 4Pal10, αMeL13, Orn16, K17(Z1), Aib20, D-Glu24, αMeY25, K31(Z1), C-term NH2; Z1=AEEA2-CO-(CH2)12-CO2H
With B11, the figures for the Ki with human glucagon receptor and in the assay with human GIP receptor were 209 nM and 0.0557 nM, respectively.

B12: Y-Aib-EGT-αMeF(2F)-TSD-4Pal-SI-αMeL-LD-Orn-K((εK)-(εK)-(γ-Glu)-CO-(CH2)12-CO2H)AQ-Aib-EFI-(D-Glu)-αMeY-LIEGGK((εK)-(εK)-(γ-Glu)-CO-(CH2)12-CO2H)SSGAPPPS-NH2 (peptide)
peptide: YXEGTXTSDXSIXLDXKAQXEFIXXLIEGGKSSGAPPPS
modifications: Aib2, αMeF(2F)6, 4Pal10, αMeL13, Orn16, K17(Z1), Aib20, D-Glu24, αMeY25, K31(Z1), C-term NH2; Z1=(εK)-(εK)-(γ-Glu)-CO-(CH2)12-CO2H
As for B12, the Ki in the assay with human GLP-1 receptor amounted to 1.6 nM; with human glucagon receptor it was 223 nM; with human GIP receptor, 0.163 nM.

B13: Y-Aib-EGT-αMeF(2F)-TSD-Ac5c-SI-αMeL-LD-Orn-K((2-[2-(2-Amino-ethoxy)-ethoxy]-acetyl)2-(γ-Glu)-CO-(CH2)12-CO2H)AQ-Aib-EFI-(D-Glu)-αMeY-LIEGGK((2-[2-(2-Amino-ethox … (peptide)
peptide: YXEGTXTSDXSIXLDXKAQXEFIXXLIEGGKSSGAPPPS
modifications: Aib2, αMeF(2F)6, Ac5c10, αMeL13, Orn16, K17(Z1), Aib20, D-Glu24, αMeY25, K31(Z1), C-term NH2; Z1=AEEA2-(γ-Glu)-CO-(CH2)12-CO2H
For B13, the figures for the Ki with human GLP-1 receptor, with human glucagon receptor and with human GIP receptor were 1.46 nM, 274 nM and 0.085 nM, respectively.

B14: Y-Aib-EGT-αMeF(2F)-TSD-4Pal-SI-αMeL-LD-Orn-K((γ-Glu)-(2-[2-(2-Amino-ethoxy)-ethoxy]-acetyl)-CO-(CH2)12-CO2H)AQ-Aib-EFI-(D-Glu)-αMeY-LIEGGK((γ-Glu)-(2-[2-(2-Amin … (peptide)
peptide: YXEGTXTSDXSIXLDXKAQXEFIXXLIEGGKSSGAPPPS
modifications: Aib2, αMeF(2F)6, 4Pal10, αMeL13, Orn16, K17(Z1), Aib20, D-Glu24, αMeY25, K31(Z1), C-term NH2; Z1=(γ-Glu)-AEEA-CO-(CH2)12-CO2H
On to B14, for which the Ki with human GLP-1 receptor is 2.02 nM; in the assay with human glucagon receptor, 458 nM; in the assay with human GIP receptor, 0.0759 nM.

Broadly, the Ki is the dissociation constant of the complex between target and ligand, obtained from inhibition or displacement. A high value points to a looser hold on the target.
